{"source": "paper PMC11843584", "key": {"[1]": {"target": "BID (BH3-interacting domain death agonist), N-terminal His6-tagged, wild type (human) (UniProt P55957)", "sequence (P55957 whole entry, the tested form may be a part)": "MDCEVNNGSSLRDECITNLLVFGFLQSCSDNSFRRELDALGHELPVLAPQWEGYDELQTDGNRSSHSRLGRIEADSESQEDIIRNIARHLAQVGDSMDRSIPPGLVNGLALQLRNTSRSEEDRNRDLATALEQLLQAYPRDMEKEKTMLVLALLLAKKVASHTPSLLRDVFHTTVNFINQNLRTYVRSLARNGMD", "test": "light-scattering titration; peptide titrated into 5 μM BID, scattered photons of a 280-nm beam; 20 mM sodium acetate pH 6.3; also at 10, 24 and 37 °C, with 0.25% or 1% OG, and in 20 mM potassium phosphate pH 5.5 to 8.0"}, "[2]": {"target": "Cleaved TEV-BID (p7 and tBID domains after TEV protease cleavage) (human) (UniProt P55957)", "test": "thioflavin T fluorescence; 5 μM protein with 50 μM peptide, ThT emission spectra against protein alone, peptide alone and buffer"}}, "data": [{"substance": "Humanin (HN), wild-type peptide", "values": [{"measurement": "fold increase in light scattering at pH 8.0", "setting": "[1]", "value": 8, "unit": "fold"}, {"measurement": "fold increase in light scattering with 1% (w/v) OG against no detergent", "setting": "[1]", "value": 5, "unit": "fold"}, {"measurement": "fold increase in scattered photons at 37 °C against 24 °C", "setting": "[1]", "value": 2.5, "unit": "fold"}, {"measurement": "fold increase in scattered photons at neutral pH against pH 6.0", "setting": "[1]", "value": 4, "unit": "fold"}, {"measurement": "protein-to-peptide ratio at the plateau of scattered photons (protein to peptide)", "setting": "[1]", "value": 2}, {"measurement": "increase in ThT fluorescence against WT BID", "setting": "[2]", "value": 15, "unit": "%"}]}]}
